In patent US20060058231A1:

What was measured:
Experiment in all cases: ELISA-like plate assay, captured BMP-7 from conditioned media, receptor-Fc detection
[1] = biological target: T1, BMPRII receptor-Fc fusion (UniProt Q13873)
T1 sequence (looked up): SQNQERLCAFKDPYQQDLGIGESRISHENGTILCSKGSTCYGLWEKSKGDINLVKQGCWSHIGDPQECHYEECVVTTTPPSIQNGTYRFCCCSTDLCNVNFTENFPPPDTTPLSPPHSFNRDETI

[2] = biological target: T2, BMPRIb receptor-Fc fusion (UniProt O00238)
T2 sequence (looked up): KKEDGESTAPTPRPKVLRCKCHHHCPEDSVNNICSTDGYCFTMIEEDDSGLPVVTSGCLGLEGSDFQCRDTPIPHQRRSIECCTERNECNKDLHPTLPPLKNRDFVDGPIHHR

[3] = biological target: ActRIIa receptor-Fc fusion (UniProt P27037)
ActRIIa receptor-Fc fusion, sequence (P27037 20-134 limits assumed): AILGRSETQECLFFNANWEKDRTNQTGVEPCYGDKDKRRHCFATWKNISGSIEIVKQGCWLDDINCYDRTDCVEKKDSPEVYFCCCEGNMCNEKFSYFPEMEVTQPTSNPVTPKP

[4] = biological target: BMPRIa receptor-Fc fusion (UniProt P36894)
BMPRIa receptor-Fc fusion, sequence (P36894 24-152 limits assumed): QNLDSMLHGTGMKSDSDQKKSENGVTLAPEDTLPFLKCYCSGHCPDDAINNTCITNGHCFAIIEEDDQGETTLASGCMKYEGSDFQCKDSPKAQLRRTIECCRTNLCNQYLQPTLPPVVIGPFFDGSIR

BMPRII binding (relative to wild type = 1.0) (relative to wild type) [1]	BMPRIb binding (relative to wild type = 1.0) (relative to wild type) [2]	ActRIIa binding (relative to wild type = 1.0) (relative to wild type) [3]	BMPRIa binding (relative to wild type = 1.0) (relative to wild type) [4]	Substance
0.09				BMP-7 variant F93A (from UniProt P18075 293-431 at identity 0.99)) (ligand)
-0.13	-0.51			BMP-7 variant R48E (from UniProt P18075 293-431 at identity 0.99)) (ligand)
0.03		0.09		BMP-7 variant W55A (from UniProt P18075 293-431 at identity 0.99)) (ligand)

The next lines start with the substance.

Substance	BMPRII binding (relative to wild type = 1.0) (relative to wild type) [1]	BMPRIb binding (relative to wild type = 1.0) (relative to wild type) [2]	ActRIIa binding (relative to wild type = 1.0) (relative to wild type) [3]	BMPRIa binding (relative to wild type = 1.0) (relative to wild type) [4]
BMP-7 variant F117S (from UniProt P18075 293-431 at identity 0.99)) (ligand)	-0.04	-0.08		
BMP-7 variant L21E (from UniProt P18075 293-431 at identity 0.99)) (ligand)	0.07			
BMP-7 variant L115A (from UniProt P18075 293-431 at identity 0.99)) (ligand)	-0.01		0.01	-0.02
BMP-7 variant S77H (from UniProt P18075 293-431 at identity 0.99)) (ligand)	0.08			
BMP-7 variant W52P (from UniProt P18075 293-431 at identity 0.99)) (ligand)	0.01		0.07	0.03
